{
  "source": "patent US7935343B2",
  "about": "(MedImmune Limited, dated 2011)",
  "binders": {"B1": {"name": "BAK278D6 IgG (antibody, V domains shown)", "VH": "EVQLVQSGAEVKKPGASVKVSCKASGYTFRNYGLSWVRQAPGQGLEWMGWISANNGDTNYGQEFQGRITMTTETSTNTAHMELRSLRSDDTAVYYCVRDSSSNWARWFFDLWGKGTMVTVSS", "VL": "SYVLTQPPSVSVAPGQTARIPCGGNNIGSKLVHWYQQKPGQAPVLVVYDDGDRPSGIPERFSGSNSGNTATLTISRIDAGDEADYYCQVWDTGSDPVVFGGGTKLTVL"}, "B2": {"name": "BAK502G9 IgG4 (antibody, V domains shown)", "VH": "B1 VH with E1Q, R30T, I68V, E73D, N77S, H80Y, V97A, N103S, K114R, M117L", "VL": "B1 VL with Q16K, P21T, N26I, V47I, I77V, D78E"}, "B3": {"name": "BAK1183H4 IgG4 (antibody, V domains shown)", "VH": "QVQLVQSGAEVKKPGASVKVSCKASGYTFTNYGLSWVRQAPGQGLEWMGWINYDGGNTQYGQEFQGRVTMTTDTSTSTAYMELRSLRSDDTAVYYCARDSSSSWARWFFDLWGRGTLVTVSS", "VL": "B1 VL with Q16K, P21T, N26I, V47I, I77V, D78E"}, "B4": {"name": "BAK1167F2 scFv (scFv, V domains shown)", "VH": "B3 VH with T30E, N31Q, Y32T, L34V, N52S, Y53A, D54N, G55N, N57D, Q59N", "VL": "B1 VL with Q16K, P21T, N26I, V47I, I77V, D78E"}, "B5": {"name": "BAK502G9 scFv (scFv, V domains shown)", "VH": "B3 VH with N52S, Y53A, D54N, G55N, N57D, Q59N", "VL": "B1 VL with Q16K, P21T, N26I, V47I, I77V, D78E"}, "B6": {"name": "BAK1167F2 IgG4 (antibody, V domains shown)", "VH": "B3 VH with T30E, N31Q, Y32T, L34V, N52S, Y53A, D54N, G55N, N57D, Q59N", "VL": "B1 VL with Q16K, P21T, N26I, V47I, I77V, D78E"}, "B7": {"name": "BAK1183H4 scFv (scFv, V domains shown)", "VH": "B3 VH", "VL": "B1 VL with Q16K, P21T, N26I, V47I, I77V, D78E"}, "B8": {"name": "BAK209B11 human IgG4 (antibody, V domains shown)", "VH": "VQLQESGGGGLVQPGGSLRLSCAASGFTFSSYGMSWVRQAPGKGLEWVSSISASGDSTFYADSVKGRFTISRDNNKNMVFLQVNSLRADDTAVYFCAKDWSQWLVGDAFDVWGRGTTVTVSS", "VL": "DIQLTQSPSTLSASVGDRVTITCRASQSVSLWVAWYQQRPGKAPKLLIYDGSTLQSGVPARFSGSGSGTEFTLTISSLQPDDFATYYCQQYKTFSTFGQGTKVEIKR"}, "B9": {"name": "BAK615E3 scFv (scFv, V domains shown)", "VH": "not shown", "VL": "NFMLTQPHSVSESPGKTVTISCTRSSGSIASNYVQWYQQRPGSAPTTVIYDDNQRPSGVPDRFSGSIDSSSNSASLTISGLKTEDEADYYCQSYDSNNDVFGGGTKVTVL"}},
  "key": {"[1]": {"target": "human IL-13 (human)", "sequence (chain, as listed by the source)": "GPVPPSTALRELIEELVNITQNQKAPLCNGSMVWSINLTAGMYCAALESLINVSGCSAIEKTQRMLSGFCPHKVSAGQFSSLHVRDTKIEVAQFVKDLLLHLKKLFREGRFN", "assay": "BIAcore, IgG coupled to the chip, IL-13 in flow"}, "[2]": {"target": "native human IL-13 released from HDLM-2 cells (human)", "sequence (chain, as listed by the source)": "as above", "assay": "cell-based or functional assay"}, "[3]": {"target": "human IL-13 (human)", "assay": "BIAcore, IgG4 coupled to the chip, IL-13 in flow"}, "[4]": {"target": "human IL-13 (human)", "assay": "cell-based or functional assay"}, "[5]": {"target": "T1, murine IL-13 (murine)", "T1 chain": "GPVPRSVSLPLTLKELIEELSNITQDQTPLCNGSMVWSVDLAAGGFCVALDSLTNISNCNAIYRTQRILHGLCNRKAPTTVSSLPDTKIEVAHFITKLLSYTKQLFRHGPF", "assay": "BIAcore, IgG4 coupled to the chip, IL-13 in flow"}, "[6]": {"target": "human IL-13 (human)", "assay": "cell-based or functional assay", "remark": "listed apart in the source"}},
  "note": "Where a chain is given by its changes, count along the chain named.",
  "data": [
    {"binder": "B1", "values": [
      {"measurement": "Kd", "setting": "[1]", "result": 13.5, "unit": "nM"},
      {"measurement": "koff", "setting": "[1]", "result": 0.00741, "unit": "s⁻¹"},
      {"measurement": "kon", "setting": "[1]", "result": 549000, "unit": "M⁻¹ s⁻¹"}
    ]},
    {"binder": "B2", "values": [
      {"measurement": "IC50, HDLM-2 cell proliferation", "setting": "[2]", "result": 4.6, "unit": "nM"}
    ]},
    {"binder": "B3", "values": [
      {"measurement": "IC50, HDLM-2 cell proliferation", "setting": "[2]", "result": 3.5, "unit": "nM"},
      {"measurement": "Kd", "setting": "[3]", "result": 0.081, "unit": "nM"}
    ]},
    {"binder": "B4", "values": [
      {"measurement": "IC50, TF-1 proliferation (Mean TF1)", "setting": "[4]", "result": 0.2, "unit": "nM"}
    ]},
    {"binder": "B5", "values": [
      {"measurement": "IC50, TF-1 proliferation (Mean TF1)", "setting": "[4]", "result": 8, "unit": "nM"}
    ]},
    {"binder": "B6", "values": [
      {"measurement": "IC50, HDLM-2 cell proliferation", "setting": "[2]", "result": 1.1, "unit": "nM"},
      {"measurement": "Kd", "setting": "[3]", "result": 0.136, "unit": "nM"}
    ]},
    {"binder": "B7", "values": [
      {"measurement": "IC50, TF-1 proliferation (Mean TF1)", "setting": "[4]", "result": 0.2, "unit": "nM"}
    ]},
    {"binder": "B8", "values": [
      {"measurement": "Kd", "setting": "[5]", "result": 5.1, "unit": "nM"},
      {"measurement": "koff", "setting": "[5]", "result": 0.0198, "unit": "s⁻¹"},
      {"measurement": "kon", "setting": "[5]", "result": "3.9e+06", "unit": "M⁻¹ s⁻¹"}
    ]},
    {"binder": "B9", "values": [
      {"measurement": "IC50, TF-1 cell proliferation", "setting": "[6]", "result": 3, "unit": "nM"}
    ]}
  ]
}
